These are literature values, as cited in paper PMC12428796.

Holding throughout (conditions): No direct protein-aptamer binding assay in this paper (only cell uptake by flow cytometry/confocal in MIA PaCa-2 and L929, with anti-nucleolin blocking)
The target in series [1] is transferrin receptor 1 (TfR1) (UniProt P02786).
In series [2] the target is matrix metalloproteinase 14 (MMP14) (UniProt P50281).
Series [3] addresses T1, cholecystokinin B receptor (CCKBR) (UniProt P32239).
T1 sequence (P32239 whole entry, looked up): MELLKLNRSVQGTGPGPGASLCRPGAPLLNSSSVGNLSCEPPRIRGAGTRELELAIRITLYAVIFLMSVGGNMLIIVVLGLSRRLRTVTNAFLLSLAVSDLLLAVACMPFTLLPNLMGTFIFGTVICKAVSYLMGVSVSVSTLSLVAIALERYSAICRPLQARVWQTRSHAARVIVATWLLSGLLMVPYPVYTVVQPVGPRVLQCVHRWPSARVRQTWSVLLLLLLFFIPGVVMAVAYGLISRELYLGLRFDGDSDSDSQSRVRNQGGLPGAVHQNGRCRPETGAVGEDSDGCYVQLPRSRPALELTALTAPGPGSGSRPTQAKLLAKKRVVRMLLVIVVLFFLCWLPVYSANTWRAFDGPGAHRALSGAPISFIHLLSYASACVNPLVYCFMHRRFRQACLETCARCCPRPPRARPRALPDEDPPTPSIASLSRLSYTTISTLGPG

A further series addresses nucleolin (UniProt P19338).

Chain of nucleolin (P19338 whole entry): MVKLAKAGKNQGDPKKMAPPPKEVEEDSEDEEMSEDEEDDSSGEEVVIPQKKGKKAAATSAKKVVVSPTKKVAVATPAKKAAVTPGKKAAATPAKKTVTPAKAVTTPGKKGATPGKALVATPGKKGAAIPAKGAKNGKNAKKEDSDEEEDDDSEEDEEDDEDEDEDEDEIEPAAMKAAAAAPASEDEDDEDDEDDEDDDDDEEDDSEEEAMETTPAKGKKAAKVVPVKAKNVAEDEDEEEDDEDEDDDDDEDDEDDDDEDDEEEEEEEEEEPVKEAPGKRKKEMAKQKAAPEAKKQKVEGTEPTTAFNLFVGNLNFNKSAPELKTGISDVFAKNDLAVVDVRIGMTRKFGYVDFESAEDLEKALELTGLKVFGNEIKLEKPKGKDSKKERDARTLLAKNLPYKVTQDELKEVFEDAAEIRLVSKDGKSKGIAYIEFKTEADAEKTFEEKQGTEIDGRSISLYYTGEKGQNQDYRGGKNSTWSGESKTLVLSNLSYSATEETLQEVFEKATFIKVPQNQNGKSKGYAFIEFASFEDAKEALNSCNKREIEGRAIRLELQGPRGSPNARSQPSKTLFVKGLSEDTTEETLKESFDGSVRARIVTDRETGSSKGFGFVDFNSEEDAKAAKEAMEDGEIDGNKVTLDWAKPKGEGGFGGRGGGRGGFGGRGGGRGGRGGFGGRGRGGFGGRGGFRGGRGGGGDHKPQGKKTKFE
Chain of transferrin receptor 1 (TfR1) (P02786 whole entry): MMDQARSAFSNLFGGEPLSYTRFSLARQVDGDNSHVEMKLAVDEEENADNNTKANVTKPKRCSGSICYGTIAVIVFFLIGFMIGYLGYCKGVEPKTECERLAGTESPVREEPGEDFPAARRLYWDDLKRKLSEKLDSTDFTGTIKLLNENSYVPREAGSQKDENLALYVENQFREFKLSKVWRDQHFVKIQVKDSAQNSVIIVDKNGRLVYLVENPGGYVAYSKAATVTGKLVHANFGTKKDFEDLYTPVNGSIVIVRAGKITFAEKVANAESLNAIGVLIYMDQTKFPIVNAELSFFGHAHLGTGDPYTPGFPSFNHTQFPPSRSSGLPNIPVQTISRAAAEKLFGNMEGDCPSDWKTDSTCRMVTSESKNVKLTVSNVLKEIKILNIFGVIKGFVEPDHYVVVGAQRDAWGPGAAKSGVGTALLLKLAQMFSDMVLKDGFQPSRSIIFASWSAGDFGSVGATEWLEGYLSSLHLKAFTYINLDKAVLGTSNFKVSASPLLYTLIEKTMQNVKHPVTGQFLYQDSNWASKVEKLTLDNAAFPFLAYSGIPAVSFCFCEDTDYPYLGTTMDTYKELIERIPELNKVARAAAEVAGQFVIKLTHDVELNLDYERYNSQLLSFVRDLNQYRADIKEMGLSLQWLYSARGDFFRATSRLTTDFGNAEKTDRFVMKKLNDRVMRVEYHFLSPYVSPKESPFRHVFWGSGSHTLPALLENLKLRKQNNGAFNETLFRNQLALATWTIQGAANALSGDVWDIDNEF

A word on the Kd: it is the equilibrium constant for the complex coming apart. Regarding “ACTCATAGGGTTAGGGGCTGCTGGCCAGATACTCAGATGGTAGGGTTACTATGAGC [XQ-2D]”, the Kd in series [1] is 55 nM. Regarding “AGGGCCCGACGTGACGGCACGTCGGATATCTCATGCGTGT [M17]”, the equilibrium dissociation constant (Kd) in series [2] is 4.98 nM.

As for “CATGGTGCAGGTGTGGCTGGGATTCATTTGCCGGTGCTGGTGCGTCCGCGGCCGCTAATCCTGTTC [AP1153]”, the Kd in series [3] was 0.206 nM. Consider GGTGGTGGTGGTGTTGGTGGTGGTGG [AS1411], for which the dissociation constant (Kd) with nucleolin is 16.4 nM.
